Test [1] deals with RgpB (Porphyromonas gingivalis, UniProt P95493 230-736). In words: […], Tris buffer (50 mM Tris, 150 mM NaCl, 5 mM CaCl2, pH 8.0) […]. To be noted: both partners purified.
Test [2] addresses histidine-tagged monomeric RgpA (rRgpAH) (Porphyromonas gingivalis W50, UniProt P28784 228-658). Described as above. The settings on record: both partners purified.

RgpB, sequence (P95493 230-736): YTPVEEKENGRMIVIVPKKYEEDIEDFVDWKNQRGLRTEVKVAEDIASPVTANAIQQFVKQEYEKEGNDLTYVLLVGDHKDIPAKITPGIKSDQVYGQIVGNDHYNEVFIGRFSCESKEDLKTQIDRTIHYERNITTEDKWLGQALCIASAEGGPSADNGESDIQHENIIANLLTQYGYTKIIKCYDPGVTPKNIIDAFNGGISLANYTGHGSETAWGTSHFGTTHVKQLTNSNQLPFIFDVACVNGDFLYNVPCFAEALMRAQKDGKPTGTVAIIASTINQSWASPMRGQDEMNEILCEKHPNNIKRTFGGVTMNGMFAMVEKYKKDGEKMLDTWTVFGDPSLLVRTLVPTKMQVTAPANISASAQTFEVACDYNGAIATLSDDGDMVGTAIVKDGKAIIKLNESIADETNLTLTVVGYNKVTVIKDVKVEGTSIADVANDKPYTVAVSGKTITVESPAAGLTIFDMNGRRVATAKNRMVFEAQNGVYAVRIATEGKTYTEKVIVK
histidine-tagged monomeric RgpA (rRgpAH), sequence (P28784 228-658, tags or fused parts left off): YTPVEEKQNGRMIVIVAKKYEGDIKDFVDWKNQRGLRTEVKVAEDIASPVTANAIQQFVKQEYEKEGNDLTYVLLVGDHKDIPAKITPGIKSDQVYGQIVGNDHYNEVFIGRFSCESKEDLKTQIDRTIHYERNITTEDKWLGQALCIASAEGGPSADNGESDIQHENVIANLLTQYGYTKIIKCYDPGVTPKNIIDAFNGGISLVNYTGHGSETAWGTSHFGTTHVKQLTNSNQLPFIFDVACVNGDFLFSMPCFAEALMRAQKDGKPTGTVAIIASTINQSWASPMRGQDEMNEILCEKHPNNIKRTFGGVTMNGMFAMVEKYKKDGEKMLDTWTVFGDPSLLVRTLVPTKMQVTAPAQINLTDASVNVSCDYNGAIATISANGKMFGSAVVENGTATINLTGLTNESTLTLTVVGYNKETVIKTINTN

B1: recombinant RgpB propeptide (rRgpB-PP) (domain or fragment)
chain: QPAERGRNPQVRLLSAEQSMSKVQFRMDNLQFTGVQTSKGVAQVPTFTEGVNISEKGTPILPILSRSLAVSETRAMKVEVVSSKFIEKKDVLIAPSKGVISRAENPDQIPYVYGQSYNEDKFFPGEIATLSDPFILRDVRGQVVNFAPLQYNPVTKTLRIYTEIVVAVSETAEAGQNTISLVKNSTFTGFEDIYKSVFMNYEATR
Consider B1, for which the Ki came out at 29 nM in test [1] and 22 nM in test [2].

B2: recombinant RgpA propeptide (rRgpA-PP) (domain or fragment)
chain: QQTELGRNPNVRLLESTQQSVTKVQFRMDNLKFTEVQTPKGMAQVPTYTEGVNLSEKGMPTLPILSRSLAVSDTREMKVEVVSSKFIEKKNVLIAPSKGMIMRNEDPKKIPYVYGKSYSQNKFFPGEIATLDDPFILRDVRGQVVNFAPLQYNPVTKTLRIYTEITVAVSETSEQGKNILNKKGTFAGFEDTYKRMFMNYEPGR
On to B2, for which the Ki in test [1] stood at 15 nM; in test [2] it was 13 nM.

Values taken from paper PMC10319874 (Scientific Reports, 2023).
